# Legend:
# EAE in Lewis rats = assay: Prevention of EAE by pretreatment before encephalitogenic challenge; format: in vivo
# BN-GP T cells = assay: IFNβ anti-proliferative activity in IL-2 stimulated cultures of BN-GP T cells; format: cell-based, rat; details: for Biological activity of IFNβ in expression supernatants: transient transfection of HEK293 cells
# Description: FIG. 1. The IFNβ-NAg his-tagged fusion protein was biologically active and was purified on nickel resins. (A) To assess whether IFNβ-NAg induced class I MHC expression, thymocytes (5×10^6/ml in complete RPMI) were cultured with or without IFNβ-NAg for 2 days and then were stained with B5 (anti-MHC-I), OX18 (anti-MHC-I), R73 (anti-TCRβ), or OX81 (anti-IL4; isotype control) and were analyzed by flow cytometry. (B) To assess IFNβ-mediated anti-proliferative activity, supernatants from two independently derived IFNβ-NAg expression systems as well as supernatants from several control expression systems were added at designated titrations (x-axis) to IL-2 stimulated cultures of BN-GP T cells. (C) To assess the specificity of anti-proliferative activity, baculovirus supernatants containing IFNβ-NAg were added at designated titrations to cultures of rat (R1T, BN-GP, RsL.11T, RsL.11, or Conal.8D9) or mouse (CTLL) T cells. Proliferative assays (B & C) were pulsed with [^3H]thymidine on the second day of a 3-day culture. (D) Shown is a representative SDS-PAGE analysis of purified IFNβ-NAg.
# FIG. 2. Structure-function analysis of the cytokine and NAg domains of IFNβ fusion proteins. (A) Expression supernatants containing designated IFNβ fusion proteins (see Table 2) were added to cultures of BN-GP T cells at designated titrations (x-axis). (B) The IFNβ-EK-NAg-6his or IFNβ-EK-6his fusion genes were inserted into the pCEP4 expression vector (Invitrogen). Inserts were verified by DNA sequencing, and the genes were expressed by transient transfection of HEK293 cells. Independently derived expression systems of IFNβ-EK-NAg-6his or IFNβ-EK-6his (3 each) were compared in the BN-GP T cell anti-proliferative assay. (C) Independently purified preparations (2 each) of each IFN-β fusion protein (IFNβ-NAg from HEK293 cells, IFNβ-NAg from baculovirus, and IFN-β from HEK293 cells) were added at designated concentrations to assess anti-proliferative activity. Two independently purified preparations of the same fusion protein were tested to verify the reliability of activity for each type of protein. The x-axis was based on the exponent of the molar concentration. For example, a concentration of 100 nM was represented as Log [10^−7]=Log10) (10^−7M)=−7 and was plotted by the exponent of −7. For these experiments (A-C), BN-GP T cells were cultured in IL-2. (D) The MBP-specific RsL.11 T cell clone and irradiated splenic APC were cultured with designated concentrations of purified IFNβ-NAg or GPMBP in the presence or absence of the OX6 anti-MHC-II mAb. (E) Five preparations of purified IFNβ-NAg and six preparations of purified IFN-β were tested for antigenic activity in cultures of RsL.11 T cells and irradiated splenic APC.
# The RsL.11 MBP-specific clone was a stable, IL-2 dependent line derived from Lewis rats sensitized with rat MBP in CFA (Mannie, M. D., and M. S. Norris. 2001. MHC class-II-restricted antigen presentation by myelin basic protein-specific CD4+ T cells causes prolonged desensitization and outgrowth of CD4-responders. Cell Immunol 212:51-62). The RsL.11T clone was a transformed variant of the RsL.11 clone. […]
# [1] = Table 3, baculovirus-derived, 1 nmole s.c. days −21, −14, −7, challenge day 0, severe = EP or P
# [2] = Table 3, baculovirus-derived, 1 nmole s.c. in saline days −21, −14, −7, challenge 50 ug DHFR-NAg in CFA day 0
# [3] = Table 4 Exp. 1 & 2 combined, HEK293-derived, 1 nmole days −21, −14, −7, challenge day 0
# [4] = Table 4 Exp. 1, HEK293-derived, 1 nmole days −21, −14, −7, challenge day 0
# [5] = Table 4 Exp. 1, HEK293-derived, 1 nmole days −21, −14, −7, challenge day 0, severe = partial or full hindlimb paralysis
# [6] = Table 4 Exp. 1, HEK293-derived, 1 nmole in saline days −21, −14, −7, challenge DHFR-NAg in CFA day 0
# [7] = Table 4 Exp. 2, HEK293-derived, 1 nmole days −21, −14, −7, challenge day 0
# [8] = Table 4 Exp. 2, HEK293-derived, 1 nmole days −21, −14, −7, challenge day 0, severe = partial or full hindlimb paralysis
# [9] = Table 4 Exp. 2, HEK293-derived, 1 nmole in saline days −21, −14, −7, challenge DHFR-NAg in CFA day 0
# [10] = Table 5 Exp 1-2 compiled, 1 nmole s.c. days −21, −14, −7 (IFNβ + NAg: separate injections), challenge day 0
# [11] = Table 5 Exp 1, 1 nmole s.c. in saline days −21, −14, −7 (IFNβ + NAg: separate injections <0.5 cm apart), challenge DHFR-NAg in CFA day 0
# [12] = Table 5 Exp 2, 1 nmole s.c. in saline days −21, −14, −7 (IFNβ + NAg: separate injections <0.5 cm apart), challenge DHFR-NAg in CFA day 0
molecule,measurement,setting,value
"IFNβ-NAg: Fusion protein: rat IFNβ, enterokinase linker (GDDDDKG), encephalitogenic 73-87 peptide of guinea pig MBP, C-terminal 6-histidine tag (protein) IDYKQLQFRQSTSIRTCQKLLRQLNGRLNLSYRTDFKIPMEVMHPSQMEKSYTAFAIQVMLQNVFLVFRSNFSSTGWNETIVESLLDELHQQTELLEIILKEKQEERLTWVTSTTTLGLKSYYWRVQRYLKDKKYNSYAWMVVRAEVFRNFSIILRLNRNFQNGDDDDKGPQKSQRSQDENPVVHHHHHH",Incidence of severe EAE,EAE in Lewis rats; [1],4 of 9
same,Mean # days with severe EAE,EAE in Lewis rats; [1],1.0 ± 1.3 days
same,Incidence of EAE,EAE in Lewis rats; [2],9 of 9
same,Mean cumulative score,EAE in Lewis rats; [2],3.4 ± 2.7
same,Mean maximal score,EAE in Lewis rats; [2],1.4 ± 0.9
same,Median cumulative score,EAE in Lewis rats; [2],2.5
same,Median maximal score,EAE in Lewis rats; [2],1.0
same,Incidence of EAE,EAE in Lewis rats; [3],8 of 8
same,Incidence of severe EAE,EAE in Lewis rats; [3],4 of 8
same,Mean # days with severe EAE,EAE in Lewis rats; [3],0.8 ± 1.0 days
same,Mean cumulative score,EAE in Lewis rats; [3],7.0 ± 5.3
same,Mean maximal score,EAE in Lewis rats; [3],1.5 ± 0.9
same,Median cumulative score,EAE in Lewis rats; [3],5.9
same,Median maximal score,EAE in Lewis rats; [3],1.5
same,Mean # days with severe EAE,EAE in Lewis rats; [4],0.6 ± 1.3 days
same,Incidence of severe EAE,EAE in Lewis rats; [5],1 of 4
same,Incidence of EAE,EAE in Lewis rats; [6],4 of 4
same,Mean cumulative score,EAE in Lewis rats; [6],6.3 ± 6.7
same,Mean maximal score,EAE in Lewis rats; [6],1.3 ± 1.2
same,Median cumulative score,EAE in Lewis rats; [6],3.9
same,Median maximal score,EAE in Lewis rats; [6],1.0
same,Mean # days with severe EAE,EAE in Lewis rats; [7],1.0 ± 0.7 days
same,Incidence of severe EAE,EAE in Lewis rats; [8],3 of 4
same,Incidence of EAE,EAE in Lewis rats; [9],4 of 4
same,Mean cumulative score,EAE in Lewis rats; [9],7.8 ± 4.3
same,Mean maximal score,EAE in Lewis rats; [9],1.6 ± 0.8
same,Median cumulative score,EAE in Lewis rats; [9],8.9
same,Median maximal score,EAE in Lewis rats; [9],2.0
same,% mean maximal weight loss,EAE in Lewis rats; [10],12.6 ± 3.6%
same,Incidence of EAE,EAE in Lewis rats; [10],14 of 14
same,Incidence of severe EAE,EAE in Lewis rats; [10],7 of 14
same,Mean # days with severe EAE,EAE in Lewis rats; [10],1.0 ± 1.2 days
same,Mean cum. score,EAE in Lewis rats; [10],7.6 ± 6.2
same,Mean maximal score,EAE in Lewis rats; [10],1.5 ± 1.1
same,Median cum. score,EAE in Lewis rats; [10],5.5
same,Median maximal score,EAE in Lewis rats; [10],1.5
same,% mean maximal weight loss,EAE in Lewis rats; [11],14.8 ± 1.9%
same,Incidence of EAE,EAE in Lewis rats; [11],7 of 7
same,Incidence of severe EAE,EAE in Lewis rats; [11],4 of 7
same,Mean # days with severe EAE,EAE in Lewis rats; [11],1.1 ± 1.2 days
same,Mean cum. score,EAE in Lewis rats; [11],8.0 ± 6.3
same,Mean maximal score,EAE in Lewis rats; [11],1.5 ± 1.0
same,Median cum. score,EAE in Lewis rats; [11],7.0
same,Median maximal score,EAE in Lewis rats; [11],2.0
same,% mean maximal weight loss,EAE in Lewis rats; [12],10.5 ± 3.6%
same,Incidence of EAE,EAE in Lewis rats; [12],7 of 7
same,Incidence of severe EAE,EAE in Lewis rats; [12],3 of 7
same,Mean # days with severe EAE,EAE in Lewis rats; [12],0.9 ± 1.2 days
same,Mean cum. score,EAE in Lewis rats; [12],7.2 ± 6.4
same,Mean maximal score,EAE in Lewis rats; [12],1.5 ± 1.4
same,Median cum. score,EAE in Lewis rats; [12],3.0
same,Median maximal score,EAE in Lewis rats; [12],0.5
same,day of disease onset,"EAE in Lewis rats; baculovirus-derived, pretreatment days −21, −14, −7 (not shown)",did not significantly modulate
same,Biological activity of IFNβ in expression supernatants,BN-GP T cells,Potent activity
same,cytokine activity relative to HEK293-derived protein,BN-GP T cells; protein purified from baculovirus expression supernatants,less active
"IFNβ: Rat interferon beta cytokine with enterokinase linker and 6-histidine sequence, no neuroantigen (protein) IDYKQLQFRQSTSIRTCQKLLRQLNGRLNLSYRTDFKIPMEVMHPSQMEKSYTAFAIQVMLQNVFLVFRSNFSSTGWNETIVESLLDELHQQTELLEIILKEKQEERLTWVTSTTTLGLKSYYWRVQRYLKDKKYNSYAWMVVRAEVFRNFSIILRLNRNFQNGDDDDKGHHHHHH",Incidence of EAE,EAE in Lewis rats; [3],8 of 8
same,Incidence of severe EAE,EAE in Lewis rats; [3],8 of 8
same,Mean # days with severe EAE,EAE in Lewis rats; [3],3.4 ± 0.8 days
same,Mean cumulative score,EAE in Lewis rats; [3],22.8 ± 4.0
same,Mean maximal score,EAE in Lewis rats; [3],2.9 ± 0.4
same,Median cumulative score,EAE in Lewis rats; [3],22.5
same,Median maximal score,EAE in Lewis rats; [3],3.0
same,Mean # days with severe EAE,EAE in Lewis rats; [4],3.0 ± 0.4 days
same,Incidence of severe EAE,EAE in Lewis rats; [5],4 of 4
same,Incidence of EAE,EAE in Lewis rats; [6],4 of 4
same,Mean cumulative score,EAE in Lewis rats; [6],22.0 ± 2.6
same,Mean maximal score,EAE in Lewis rats; [6],3.0 ± 0.0
same,Median cumulative score,EAE in Lewis rats; [6],21.3
same,Median maximal score,EAE in Lewis rats; [6],3.0
same,Mean # days with severe EAE,EAE in Lewis rats; [7],3.9 ± 0.9 days
same,Incidence of severe EAE,EAE in Lewis rats; [8],4 of 4
same,Incidence of EAE,EAE in Lewis rats; [9],4 of 4
same,Mean cumulative score,EAE in Lewis rats; [9],23.7 ± 5.3
same,Mean maximal score,EAE in Lewis rats; [9],2.8 ± 0.5
same,Median cumulative score,EAE in Lewis rats; [9],23.6
same,Median maximal score,EAE in Lewis rats; [9],3.0
same,Biological activity of IFNβ in expression supernatants,BN-GP T cells,Potent activity
